# In patent publication US20260216242A1 (ALMAC DISCOVERY, published 2026):
# T1: Human ALPPL2 (leucine zipper) (human)
# T1 construct: Whole entry: fused with a cysteine stabilised leucine zipper and His tag; also called hALPPL2
# T1 chain: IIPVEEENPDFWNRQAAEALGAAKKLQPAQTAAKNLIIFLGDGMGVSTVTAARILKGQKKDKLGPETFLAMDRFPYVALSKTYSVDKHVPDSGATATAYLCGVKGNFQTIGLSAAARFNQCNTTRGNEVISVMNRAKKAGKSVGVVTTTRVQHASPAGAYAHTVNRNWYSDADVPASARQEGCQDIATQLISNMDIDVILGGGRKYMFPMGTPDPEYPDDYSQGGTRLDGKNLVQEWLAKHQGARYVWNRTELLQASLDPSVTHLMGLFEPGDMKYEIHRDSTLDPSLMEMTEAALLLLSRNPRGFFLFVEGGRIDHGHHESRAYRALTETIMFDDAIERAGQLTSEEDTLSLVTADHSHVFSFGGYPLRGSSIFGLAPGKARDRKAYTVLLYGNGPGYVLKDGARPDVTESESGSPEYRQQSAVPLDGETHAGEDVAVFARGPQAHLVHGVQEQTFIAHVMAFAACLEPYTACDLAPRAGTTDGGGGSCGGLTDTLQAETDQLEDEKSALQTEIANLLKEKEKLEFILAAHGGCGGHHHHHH
# T2: Human ALPP (leucine zipper) (human)
# T2 construct: Whole entry: ALPP fused with a cysteine stabilised leucine zipper and His tag; also called hALPP
# T2 chain: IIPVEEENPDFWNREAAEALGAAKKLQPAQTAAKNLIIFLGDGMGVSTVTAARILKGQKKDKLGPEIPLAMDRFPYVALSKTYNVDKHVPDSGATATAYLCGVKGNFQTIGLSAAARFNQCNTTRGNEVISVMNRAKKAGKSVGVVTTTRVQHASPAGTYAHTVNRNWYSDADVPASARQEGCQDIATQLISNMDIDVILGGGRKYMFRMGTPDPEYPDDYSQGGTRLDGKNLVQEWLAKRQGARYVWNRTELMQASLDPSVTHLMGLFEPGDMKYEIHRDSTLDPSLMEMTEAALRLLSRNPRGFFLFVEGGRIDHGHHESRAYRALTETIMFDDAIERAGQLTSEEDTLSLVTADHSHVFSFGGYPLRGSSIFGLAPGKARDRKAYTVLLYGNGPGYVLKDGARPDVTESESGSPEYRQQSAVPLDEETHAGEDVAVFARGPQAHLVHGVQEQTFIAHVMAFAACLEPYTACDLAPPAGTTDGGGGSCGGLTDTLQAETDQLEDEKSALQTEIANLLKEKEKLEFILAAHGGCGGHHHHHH
# T3: human ALPL on CHO cells (human, UniProt P05186 18-501)
# T3 construct: whole, on cells; also called CHO-ALPL
# T3 sequence (looked up): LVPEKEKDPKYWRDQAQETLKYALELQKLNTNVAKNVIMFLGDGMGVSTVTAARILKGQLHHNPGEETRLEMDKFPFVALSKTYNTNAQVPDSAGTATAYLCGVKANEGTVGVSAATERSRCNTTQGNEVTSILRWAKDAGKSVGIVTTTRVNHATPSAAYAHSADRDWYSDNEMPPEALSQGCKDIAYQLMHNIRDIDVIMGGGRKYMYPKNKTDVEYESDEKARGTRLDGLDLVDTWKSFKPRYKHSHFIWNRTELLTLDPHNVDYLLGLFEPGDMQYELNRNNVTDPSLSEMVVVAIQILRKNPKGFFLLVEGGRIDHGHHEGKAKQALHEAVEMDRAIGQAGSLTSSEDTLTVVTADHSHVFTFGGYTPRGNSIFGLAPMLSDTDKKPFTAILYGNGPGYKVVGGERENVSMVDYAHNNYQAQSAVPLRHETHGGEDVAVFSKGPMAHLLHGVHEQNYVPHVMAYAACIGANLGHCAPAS
# Legend:
# [1] = molecular target: T4, human ALPPL2 on CHO cells (human, UniProt P10696 20-503); test: flow cytometry, CHO cells, KDapp
# T4 construct: whole, on cells; also called CHO-ALPPL2
# Experimental: (§1) Cell surface binding of test agents to hALPP isoforms was characterized in four CHO-ALPP isoform stably transfected cell lines (CHO-ALPP, CHO-ALPPL2, CHO-ALPI and CHO-ALPL) and the resulting KDapp values determined. Adherent cells were detached from tissue culture flasks by incubating with 0.1% EDTA/PBS solution at 37° C. for ~10 minutes or until cells detached easily. Cells were re-suspended in ice-cold PBS/2% FCS in 15 ml tubes and centrifuged at 1700 rpm for 5 mins at 4° C. Supernatant was removed and the cell pellet re-suspended in PBS/2% FCS. […] Cells were incubated with 100 μl of test agents at a range of concentrations, plus controls for 1 hr on ice. The sample plate was centrifuged at 1700 rpm for 5 mins at 4° C. The supernatant was removed, and a wash performed by re-suspending the cell pellets in 0.25 mL of ice-cold PBS/2% FCS using a multichannel pipette. Samples were again centrifuged at 1700 rpm for 5 min at 4° C. Supernatant was removed and two further washes performed as described. After the final wash and centrifugation step, excess liquid was removed by blotting the plate on tissue paper. Binding of VHH (His6 tagged) agents was determined by adding 100 μl of anti-x6His tag Ab (Abcam) per cell pellet sample as appropriate and incubating on ice for 30 mins. Wash steps were performed as described previously. Fitc-anti-mouse antibody (ThermoFisher) was used to detect binding of the VHH (His6 tagged) agents by incubating with the appropriate samples for 30 min on ice in the dark. Wash steps were performed as described previously. All cell pellets were finally re-suspended in […] of ice-cold PBS/2% FCS and left on ice in the dark prior to analysis on a Merck-Millipore Guava EasyCyte HT or Thermo Fisher Attune N×T flow cytometer.
# human ALPP on CHO cells [2] = molecular target: T5, human ALPP on CHO cells (human, UniProt P05187 23-506); test: flow cytometry, CHO cells, KDapp
# T5 construct: whole, on cells; also called CHO-ALPP
# Experimental: as §1
# [3] = molecular target: T1, Human ALPPL2 (leucine zipper); test: BLI, antigen immobilised
# Experimental: (§2) Binding kinetics were determined using the Biolayer Interferometry (BLI) Octet K2 system (Sartorius). […] All assays were conducted in PBS with a plate temperature of 25° C. Ka (M⁻¹s⁻¹), Kd (s⁻¹) and KD (nM) values were determined using Octet Data Analysis High Throughput software (ForteBio) for Biolayer Interferometry.
# [4] = molecular target: T2, Human ALPP (leucine zipper); test: BLI, antigen immobilised
# Experimental: as §2
# [5] = molecular target: T4, human ALPPL2 on CHO cells; test: flow cytometry, CHO cells stably expressing human ALPPL2; His6-tagged VHH detected with anti-His tag Ab and FITC anti-mouse Ab
# Experimental: (§3) C-terminal His tagged VHH proteins were assessed for ALPP, ALPPL2, ALPI and ALPL cell-surface binding by flow cytometry. Binders encompassing different epitope bins were screened on CHO cells stably expressing ALPP, ALPPL2, ALPI or ALPL. High levels of cell-surface proteins expression were confirmed for each of the cell-lines by flow cytometry.
# (§4) Cell surface binding of test agents to hALPP isoforms was characterized in four CHO-ALPP isoform stably transfected cell lines (CHO-ALPP, CHO-ALPPL2, CHO-ALPI and CHO-ALPL) and the resulting KDapp values determined. Adherent cells were detached from tissue culture flasks by incubating with 0.1% EDTA/PBS solution at 37° C. for ~10 minutes or until cells detached easily. Cells were re-suspended in ice-cold PBS/2% FCS in 15 ml tubes and centrifuged at 1700 rpm for 5 mins at 4° C. Supernatant was removed and the cell pellet re-suspended in PBS/2% FCS. […] Cells were incubated with 100 μl of test agents at a range of concentrations, plus controls for 1 hr on ice. The sample plate was centrifuged at 1700 rpm for 5 mins at 4° C. The supernatant was removed, and a wash performed by re-suspending the cell pellets in 0.25 mL of ice-cold PBS/2% FCS using a multichannel pipette. […] Binding of VHH (His6 tagged) agents was determined by adding 100 μl of anti-x6His tag Ab (Abcam) per cell pellet sample as appropriate and incubating on ice for 30 mins. […]
# human ALPP on CHO cells [6] = molecular target: T5, human ALPP on CHO cells; test: flow cytometry, CHO cells stably expressing human ALPP; His6-tagged VHH detected with anti-His tag Ab and FITC anti-mouse Ab
# Experimental: as §3, §4
# [7] = molecular target: T4, human ALPPL2 on CHO cells; test: flow cytometry, CHO cells stably expressing human ALPPL2; PDC detected with FITC anti-human Ab
# Experimental: (§5) Biparatopic VHH-hFc drug conjugates were assessed for human ALPP, ALPPL2, ALPI and ALPL cell-surface binding by flow cytometry. Binders were screened on CHO cells stably expressing human ALPP, ALPPL2, ALPI or ALPL.
# (§6) Cell surface binding of test agents to hALPP isoforms was characterized in four CHO-ALPP isoform transfectant cell lines (CHO-ALPP, CHO-ALPPL2, CHO-ALPI and CHO-ALPL) and the resulting KDapp values determined. Adherent cells were detached from tissue culture flasks by incubating with 0.1% EDTA/PBS solution at 37° C. for […] or until cells detached easily. Cells were re-suspended in ice-cold PBS/2% FCS in 15 ml tubes and centrifuged at 1700 rpm for 5 mins at 4° C. Supernatant was removed and the cell pellet re-suspended in PBS/2% FCS. […] Cells were incubated with 100 μl of test agents at a range of concentrations, plus controls for 1 hr on ice. The sample plate was centrifuged at 1700 rpm for 5 mins at 4° C. The supernatant was removed, and a wash performed by re-suspending the cell pellets in 0.25 mL of ice-cold PBS/2% FCS using a multichannel pipette. Samples were again centrifuged at 1700 rpm for 5 min at 4° C. Supernatant was removed and two further washes performed as described. […] Binding of VHH-hFc agents was determined by adding 100 μl of Fitc-anti-human Ab (ThermoFisher) and incubating for 30 mins on ice in the dark. […]
# human ALPL on CHO cells = molecular target: T3, human ALPL on CHO cells; test: flow cytometry, CHO cells stably expressing human ALPL; PDC detected with FITC anti-human Ab
# Procedure, shortened: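 Cell-surface binding to CHO cells stably transfected with human ALPP, ALPPL2, ALPI or ALPL; cells detached with 0.1% EDTA/PBS, incubated with biparatopic VHH-hFc drug conjugates over a concentration range for 1 hr on ice. Bound agent detected with FITC anti-human Ab (30 min, ice, dark) by flow cytometry; KDapp derived from binding.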
# human ALPP on CHO cells [8] = molecular target: T5, human ALPP on CHO cells; test: flow cytometry, CHO cells stably expressing human ALPP; PDC detected with FITC anti-human Ab
# Experimental: as §5, §6
Binder,Kd [1],Kd (human ALPP on CHO cells [2]),Kd [3],koff [3],kon [3],Kd [4],koff [4],kon [4],EC50 (read off the curve) [5],EC50 (read off the curve) (human ALPP on CHO cells [6]),EC50 (read off the curve) [7],binding result (human ALPL on CHO cells),EC50 (read off the curve) (human ALPP on CHO cells [8])
"B01 His (VHH, not shown: small tags and cut ends) VHH: QVQLVESGGGLVQAGGSLRLSCEVTRSPMPIDTMAWYRQAPGRQRELVAIISRSGSTNYADSVKGRFTISRNDTKSTMYKSTMYLKMNTLELEDTGVYYCNAVGLWNGAEYWGQGTQVTVSS",5 nM,5.3 nM,0.29 nM,0.00014 s⁻¹,482000 M⁻¹ s⁻¹,1.18 nM,0.000191 s⁻¹,162000 M⁻¹ s⁻¹,~5 nM,~5 nM,–,–,–
"D10-A06 hFc-vcPAB-MMAE [G4S]3 (Fc fusion, DAR 4, MC-vc-PAB-MMAE on Cys 239 and Cys 442 (EU numbering), Biparatopic drug conjugate, DAR 4; also called #633) chain 1: QVQLVESGGGLVQPGGSLRLSCAASGSIFSVNTMGWYRQAPGKQRDLVAVATSGGTIHYADSVKGRFTISRDNAKNTVYLQMNSLKPEDTAVYYCNLVVPYGMIAGDHDYWGQGTKVTVSSGGGGSGGGGSGGGGSEPKSSDKTHTCPPCPAPELLGGPCVFLFPPKPKDTLMISRTPEVTCVVVDVSHEDPEVKFNWYVDGVEVHNAKTKPREEQYNSTYRVVSVLTVLHQDWLNGKEYKCKVSNKALPAPIEKTISKAKGQPREPQVYTLPPSRDELTKNQVSLYCLVKGFYPSDIAVEWESNGQPENNYKTTPPVLDSDGSFFLYSKLTVDKSRWQQGNVFSCSVMHEALHNHYTQKSLCLSPGK chain 2: QVHLVESGGGLVQAGGSLRLSCAASGRTFLSMGWFRQAPGKEREFVAAISWTGGSTGYADSVKGRFTISRESDKETMYLQMNSLKPEDTAVYYCAARGDVYYGGDDATRYKYWGQGTQVTVSSGGGGSGGGGSGGGGSEPKSSDKTHTCPPCPAPELLGGPCVFLFPPKPKDTLMISRTPEVTCVVVDVSHEDPEVKFNWYVDGVEVHNAKTKPREEQYNSTYRVVSVLTVLHQDWLNGKEYKCKVSNKALPAPIEKTISKAKGQPREPQVYTLPPSRDELTKNQVSLTCLVKGFYPSDIAVEWESNGQPENNYKTTPPVLDSDGSFFLTSKLTVDKSRWQQGNVFSCSVMHEALHNHYTQKSLCLSPGK",–,–,–,–,–,–,–,–,–,–,~5 nM,no binding (tested: 350 nM),–
"D10-A06-hFc-vcPAB-MMAE [G4S]1 (Fc fusion, DAR 4, MC-vc-PAB-MMAE on Cys 239 and Cys 442 (EU numbering), Biparatopic drug conjugate, DAR 4; also called #676) chain 1: QVQLVESGGGLVQPGGSLRLSCAASGSIFSVNTMGWYRQAPGKQRDLVAVATSGGTIHYADSVKGRFTISRDNAKNTVYLQMNSLKPEDTAVYYCNLVVPYGMIAGDHDYWGQGTKVTVSSGGGGSEPKSSDKTHTCPPCPAPELLGGPCVFLFPPKPKDTLMISRTPEVTCVVVDVSHEDPEVKFNWYVDGVEVHNAKTKPREEQYNSTYRVVSVLTVLHQDWLNGKEYKCKVSNKALPAPIEKTISKAKGQPREPQVYTLPPSRDELTKNQVSLYCLVKGFYPSDIAVEWESNGQPENNYKTTPPVLDSDGSFFLYSKLTVDKSRWQQGNVFSCSVMHEALHNHYTQKSLCLSPGK chain 2: QVHLVESGGGLVQAGGSLRLSCAASGRTFLSMGWFRQAPGKEREFVAAISWTGGSTGYADSVKGRFTISRESDKETMYLQMNSLKPEDTAVYYCAARGDVYYGGDDATRYKYWGQGTQVTVSSGGGGSEPKSSDKTHTCPPCPAPELLGGPCVFLFPPKPKDTLMISRTPEVTCVVVDVSHEDPEVKFNWYVDGVEVHNAKTKPREEQYNSTYRVVSVLTVLHQDWLNGKEYKCKVSNKALPAPIEKTISKAKGQPREPQVYTLPPSRDELTKNQVSLTCLVKGFYPSDIAVEWESNGQPENNYKTTPPVLDSDGSFFLTSKLTVDKSRWQQGNVFSCSVMHEALHNHYTQKSLCLSPGK",–,–,–,–,–,–,–,–,–,–,–,no binding (tested: 350 nM),10 to 22 nM
